Measurements: patent US20180066017A1, “CLASS I MHC PHOSPHOPEPTIDES FOR CANCER IMMUNOTHERAPY AND DIAGNOSIS” (Agenus Inc., priority 2010, published 2018)
Square brackets hold non-standard residues; d marks the D form. Ends that are not written are not given here. pS = N[C@@H](COP(=O)(O)O)C(=O)O

Assays:
HLA A*0201 = HLA A*0201 (Homo sapiens, UniProt P04439, D140Y/D185E/D98H/E176V/E277Q/G131W/G231S/I119V/I121R/I166T/I218V/L300P/L318F/N151K/N90K/P208A/P217A/Q86G/Q94H/R138H/R169H/T345S); test: Binding of IRS-2 phosphopeptides to HLA A*0201
From the text: (§1) We have also shown that we can clone the T-cell receptor on the murine cytotoxic T-cells and then inject the corresponding DNA into normal human T-cells. This process turns them into cytotoxic T-cells that now recognize cancer cells that express the same class I phosphopeptides derived from IRS-2 and β-catenin. […] These experiments also open the door for using class I phosphopeptides in adopted T-cell therapy of cancer. This approach has shown dramatic success in the treatment of advanced stage metastatic melanoma. […] RVApSPTSGV (SEQ ID NO: 1289) binds to HLA A*0201 and both RVApSPTSGVK (SEQ ID NO: 53) and RVApSPTSGVKR (SEQ ID NO: 54) bind to HLA A*0301.

HLA A*0301 = HLA A*0301 (Homo sapiens, UniProt P04439); test: Binding / presentation of IRS-2 phosphopeptides by HLA A*0301
From the text: as §1

[1] = test system: cancer cell lines COV413.AAD.A4, DM331.AAD.A4, SLM2.AAD.A1, MCF7.AAD.A2, MDAMB231.AAD; JY EBV-BLCL control; test: Recognition of naturally processed and presented phosphopeptides on cancer cells by phosphopeptide-specific CTL (murine IFNγ release); format: cell-based; conditions: FIG. 1A/1B; for recognition of the phosphopeptide on control cell line by phosphopeptide-specific CTL (murine IFNγ): JY EBV-BLCL control cell line; for recognition of the phosphopeptide on cancer cell lines by phosphopeptide-specific CTL (murine IFNγ): ovarian carcinoma, melanoma and breast carcinoma cell lines
Experimental: FIGS. 1A and 1B are a graphic illustration of the recognition of naturally processed and presented phosphorylated peptides on cancer cells by the phosphopeptide-specific CTL. Phosphopeptide-specific CTL were incubated with the following cancer cell lines or EBV-transformed B lymphoblastoid cell lines (BLCL): COV413.AAD.A4 ovarian carcinoma, DM331.AAD.A4 and SLM2.AAD.A1 melanomas, MCF7.AAD.A2 and MDAMB231.AAD breast carcinomas, and JY EBV-BLCL. Supernatants were harvested and evaluated for the presence of murine IFNγ (produced by murine CTL lines). […] The designation “pS” denotes a phosphoserine residue. The ordinate indicates murine IFNγ in pg/ml. The abscissa indicates each cell line.

Row | Substance | binding to HLA A*0201 (HLA A*0201) | presentation by the A*0301 molecule (HLA A*0301) | recognition of the phosphopeptide on control cell line by phosphopeptide-specific CTL (murine IFNγ) [1] | recognition of the phosphopeptide on cancer cell lines by phosphopeptide-specific CTL (murine IFNγ) [1] | binding to HLA A*0301 (HLA A*0301)
1 | RVApSPTSGV (RVA[pS]PTSGV) | binds | cannot be presented | not the control cell line | recognize the phosphopeptide on all the cancer cell lines | –
2 | RVApSPTSGVKR (RVA[pS]PTSGVKR) | Neither of the A*0301 peptides bind | – | – | – | bind
3 | RVApSPTSGVK (RVA[pS]PTSGVK) | Neither of the A*0301 peptides bind | – | – | – | bind
4 | GLLGpSPVRA (GLLG[pS]PVRA) [phosphopeptide with phosphoserine residue recognized by CTL lines 6850 and 6960] | – | – | not the control cell line | recognize the phosphopeptide on all the cancer cell lines | –
